Substitutions are numbered along the chain they refer to. Names may count otherwise.
Biological target: the molecule itself
Assay: negative-stain transmission electron microscopy; protein incubated with unilamellar liposomes (1:1 POPC/chol), stained with 1% w/v uranyl acetate on a copper grid; membrane-bound oligomeric structures visualised

B1: pneumolysin point mutant D205R (natural protein, Streptococcus pneumoniae, UniProt Q04IN8 1-471, looked up)
chain: MANKAVNDFILAMNYDKKKLLTHQGESIENRFIKEGNQLPDEFVVIERKKRSLSTNTSDISVTATNDSRLYPGALLVVDETLLENNPTLLAVDRAPMTYSIDLPGLASSDSFLQVEDPSNSSVRGAVNDLLAKWHQDYGQVNNVPARMQYEKITAHSMEQLKVKFGSDFEKTGNSLDIDFNSVHSGEKQIQIVNFKQIYYTVSVRAVKNPGDVFQDTVTVEDLKQRGISAERPLVYISSVAYGRQVYLKLETTSKSDEVEAAFEALIKGVKVAPQTEWKQILDNTEVKAVILGGDPSSGARVVTGKVDMVEDLIQEGSRFTADHPGLPISYTTSFLRDNVVATFQNSTDYVETKVTAYRNGDLLLDHSGAYVAQYYITWDELSYDHQGKEVLTPKAWDRNGQDLTAHFTTSIPLKGNVRNLSVKIRECTGLAWEWWRTVYEKTDLPLVRKRTISIWGTTLYPQVEDKVEND
notes: pneumolysin (PLY), Streptococcus pneumoniae, with D205R in domain 1; also called PLY D205R; source: purified
binding result: binds

B2: pneumolysin point mutant T304R (natural protein, Streptococcus pneumoniae, UniProt Q04IN8 1-471, looked up)
chain: B1 chain with R205D, T304R
notes: pneumolysin (PLY), Streptococcus pneumoniae, with T304R in domain 3; also called PLY T304R; source: purified
binding result: binds
